Assay: soluble on expression in E. coli; label from the status in PepcDB or PDB records

Sequence	soluble on expression in E. coli
MGSDKIHHHHHHMTNPTLAPQSDEYQQIHNGIVQLLDTARTQTVRSINTIMTATYWEMGRRIVEFEQGGEARAAYGEQLIDRLSQDLSQRYKRGFSASNLWQFKKFYLYFQKIEILQTVSGESLHLAQLAKSFPLPWSAYVRLLSVKNPNARTFYEKETLRNGWSVRQLDRQIATQFYERTLLSHDKSAMLQQPAPAEPNVLPEQAIRDPFILEFLNLKDEYSESDLEDALLSHLMDFMLELGDDFAFVGRQRRLRIDDSWFRVDLLFFHRRLRCLLLVDLKVGKFGYADAGQMNMYLNYAKEHWTMPGENPPVGLVLCAGKGAGEAHYALTGLPNTIMASEYKVQLPDEKLLTDELIRSQTMLETQLTRGGSLTTEKN	not soluble
MGSDKIHHHHHHMTNRCLYCYEPLVDGEMDYHAKCCRKLFGTPQAPILPYTSSEVRALADEVVRSQTTVTGVQPKLSLDFDQMSNSPKRFTIVGLWGRFILKPQTERYSHLPELEDVSMHLAEIAKIETVPHGLMRFSDGELCYITRRIDRTGQGEKLPMEDMCQLSERLTEYKYKGSHEQVAKLISKYSSVPKLDLVKYWEQVLFSWLIGNADMHLKNYSLYAPEGNEYQLTPAYDLLSTALVIPEDTEELALTLCGKKRKLTRQHFLEAMTASGLDEKVCDNIFARFQHILPEWEACIRQSFLPTEMQRQYIEFILLKFSQI	not soluble
MGSDKIHHHHHHMTNVIIEKISAKEVFKGAKIKVMITTMTNISIGYDIIEVNNPEEAIADVENVIAPELIGYPATDIDFIDSLICETSVNNPTVAMGISISVARAASNSLDIPLFKFLGGALTTELPIVASGILVDKDKNELIPIVMADSIEDIVNLYLKLTDVLSHDYSIVNIDGAYTCKDIFNEIPKIRNLIDEIKEDEDLDILLGLSSKKETVKDKDLSQIDYLEVEEPVEFDGFLCTDSIYEESDFVKVFPYEMGTITEMYYYINYIMDKGLYPVIFGNNSSFAHIAVSFKVPFLRPKLSSNVLNEVWNIERTIMNPNIRRF	not soluble
MGSDKIHHHHHHMTPITQSEINKAAWGACDTFRGVVDPSIYKDYVLTMLFLKYVSDVWKDHKASYAAHYPDSPELVAAMMERETFKLPETASFDALHGRRHEPGNGERIDKALHAIEEANGSKLRDVFQDISFNSNKLGDEEQKNDILRHLLEDFAKTALDLRPSRVGNLDIIGGAYEYLISRFAATAGKKAGEFYTPAEVSELMARLVDPQPGDDICDPTCGSASLLMKCGRLIREGGSKAYALFGQEAIGSTWALAKMNLFLHGEENHQIEWGDTIRNPKLRTSDDMLRHFDVVVANPPFSLDKWGVESAEADKFARFRRGIPPKTKGDYAFILHMIETLKPKTGRMAVVVPHGVLFRGSSEGKIRHKLIEDNLLDAVIGLPEKLFFGTGIPSAILVFRKDKADDSVLFVDASREFVAGTNQNALDMTLIEKIVATHQTRQTVEKYAYRATLAEIIENDFNLNIPRYVDTFEEEEEIDLMAVRAERMKLKGEMAELEDRMEGYLQELGY	not soluble
MGSDKIHHHHHHMTPRANALPTDAGELYYSYARPADGALPSLSRQKGLLGIITFQTGFVGEGDGAKPEGILQIPLSGRGDDLCELWKTTQPVLAGTFGDITYRCSRDFLFGSIALAVADLPAGNHGLIHPPLQNAAELAYQQIFSLLDRHGYPGLLRIWNFVPDINGVSHGLEHYRQFNIGRQDAFLAHNRLPSRQNIPAASALGSVDGPLVVYFLAARRNSVAVENPRQISAYHYPQEYGPSSPTFSRAGWVDLGQQKILFISGTASIIGHQTRHGGNVAAQARESMANIAAVVAETNRVAAGSPYDLNDLSYKVYLRQFTDLPIVRAELDRLVTPKAPIFYLQADICRADLLVEIEATAGVLHGGMA	not soluble
MGSDKIHHHHHHMTPTADIWFKDTLAAHFTRDGDQTTFSYTADYAGPPIATSLPINSEPVITRSGAIPPFFAGLLPEGRRLSSLRRNIKASADDELSLLLAVGADPVGAVAIFPHGENPQPAPPTVDFDDELDFSAALTESGIADPVALAGVQDKASARTIAVPVASDAILKLSPPEYPYLVENEAACYQLLTKNKLRIELSKVEVLHDKHGRSGLLVHRFDRTPKGKIPVEDAGQVLGIWPADKYLVSYEDIAQALTKVCASPILAMRNLAFQIAVAWLSGNGDLHAKNISIINKGRGFEISPIYDIPATAVYGDTTMALEIQGSKKDLSQKKFLKFCTSIGLPEKTAMSVANAALLATENAAETILASGNFDTRMNRDLARVLKHRRSAWGA	not soluble
MGSDKIHHHHHHMTPVLSLDMEDPIRFIDENGSFEVVKVGHNLAIHGKKIFDELAKRNLKIILDLKFCDIPSTVERSIKSWDHPAIIGFTVHSCAGYESVERALSATDKHVFVVVKLTSMEGSLEDYMDRIEKLNKLGCDFVLPGPWAKALREKIKGKILVPGIRMEVKADDQKDVVTLEEMKGIANFAVLGREIYLSENPREKIKRIKEMRL	soluble
MGSDKIHHHHHHMTQTSSLVINSFREITVNHPLWSHEFLIRCRAGNLFLPDVQILAVQMYKFSKEFNRILASILSCCEDESSQLVILENLFDEMGQGDITQSHPELFRQFTRALGIDDETLAALPTAPETRALIETYLQIPHKYGYLAALGAVCYASEGIVSSLYTQLYKGIIGATPLPKEALIFFEVHIDVDDSHAAKLAAVIEPRIPMNEEDIKVKLAIVEAMDARVQFFNGIQRQISKYSLYPDSWVHFDALL	not soluble
MGSDKIHHHHHHMTQTTPQPDPSRLRDELVRLHGKASPEWDSLVRLDPRFVDAYLKFAGVPQRRNHLDDKTRAFIALAADACATQLYAPGVARHIERALSFGATREELIEVLELVSTIGIHTSNVGVPVLLEVLEEEGLRKGAPPLDERRQKLKAEFETNRGYWHPTWEGLLELDPDLFEAYVEFSSVPWRTGVLSPKIKEFMYCAFDASATHLYVPGLKLHIRNALRYGATAEELMELLEIVSVTGIHGAELGAPLLEAALKRSGAAAGEPHA	not soluble
MGSDKIHHHHHHMTQVHFTLKSEEIQSIIEYSVKDDVSKNILTTVFNQLMENQRTEYIQAKEYERTENRQSQRNGYYERSFTTRVGTLELKVPRTRDGHFSPTVFERYQRNEKALMASMLEMYVSGVSTRKVSKIVEELCGKSVSKSFVSSLTEQLEPMVNEWQNRLLSEKNYPYLMTDVLYIKVREENRVLSKSCHIAIGITKDGDREIIGFMIQSGESEETWTTFFEYLKERGLQGTELVISDAHKGLVSAIRKSFTNVSWQRCQVHFLRNIFTTIPKKNSKSFREAVKGIFKFTDINLAREAKNRLIHDYIDQPKYSKACASLDDGFEDAFQYTVQGNSHNRLKSTNLIERLNQEVRRREKIIRIFPNQTSANRLIGAVLMDLHDEWIYSSRKYINFDK	not soluble
MGSDKIHHHHHHMTRGIALFFWNRKKATKKISPEPEAAQEVWQRKKYRTNYYTYNSAKERGSLRSKKQRKHEIGEYKLEVGLAHLPRCFRRLSNLLLGTKGRFHQIDHVLISPYGIFLLEANNLSGLIVGEETESKWYQAITWRVKTFPNPIMENQVRVQMLQELAGLDQTIPVFSYVTFNRSCSLKVFSGMVFYDIDLPASIMQLAQNQPAVLSDEEILELVERIEKINLTDLGLRNEYAARQRRERMQYRPKYGDIRCSICQKAVNERMARYCLNRPEKFAWKIYCEKHQREMTRVVRREGGREGHGPYPESTDSKKESMD	not soluble
MGSDKIHHHHHHMTRSGIGIRTAQQQSGRLTGQIHVYDGAGKGKSQAALGVVLRSIGLGIRDQWQSRVLLLRFLKGPGRTYDEDAAIEALQQGFPHLIDQVRTGRAEFFGPDAISRFDRQEARRGWDIAKGAIVSGLYSVIVLDELNPILDLGLLPVDEVVQTLRQKPPQVEVIATGRGAPPQLLEIADLHSEMIAHANPAVAPVGMEGIEIYTGEGKGKSTSALGKALQAIGRGIGQDLSHRVLILQWLKGGSGYTEDAAIQALRQSYPHLVDHQRSGRDAIVWRGQQQEIDYIEAERAWEIARAAIASGLYKTIILDELNPTVDLELLPEEPILQALLRKPRDTEVIITGRCKQIPAYFHLASVHSEMVCHKHYAERGIELKRGVDY	not soluble
MGSDKIHHHHHHMTRVEELLSQIKNLKTEKNAIILGHNYMEYSVQLVSDFTGDSYDLAVKAMKTNAKIILFAGVYFMAEQASALNPNKKVLSPDPNAGCTLSDSLDVKTLQEYKEKYPNAPVVLYINTSIYAKALADYIVTSSTAVKVVQKLNADTILFGPDANLANYVQQKVPNKKIIKVPPNGRCIVHANYTKQLVELARKKYPNALLMAHPEAPLEILESADFVGSTNQMIQFSKENKNEEFIVATEIGMINALKIKNPSKKFYPLVTTEACACARCPYMNMINLEKVKRSLEEEVYEVKVPEDIAERVKRAFENTMKLL	not soluble
MGSDKIHHHHHHMTSQLNELVEFLHSPQPAVRQIAIDNLVGFSAGPTSKVFKNDSYRPIKDIIKMIMDPEHGTRVIIQQGVTILVNLSEDKLVRNIILSDDKKFLKFLVWKIVDLTNPNADIMCILLSNLAKDDGILAVLNIKRNSSGEEVDDGLKLAALNKEVFKSLRAMDCLMDCFVKGYDKKLTKYASFNYLAFFFADISRFKLGRMYFIEEQEYDGVVPISKLLVFTEKYDAKVRREGVASTIKNSLFDSETHERLLKDEKINLLPYILLPIASAKDSEIDEEDMFNLPDELQLLPEDKERDPIPAIICCHLESILLLCTTHAGREYLRDKSVYPLVRELHKNVENEDIGELCYRIVNMLMRGEPGAGAVEEMPSKNAEEEEEEESEEEEDDDEEDEIVEVA	not soluble
MGSDKIHHHHHHMTTKLDQLTSWLKERKITEVECLISDLTGIARGKISPTNKFIAEKGMRLPESVLLQTVTGDYVEDDIYYDLLDPADIDMVCRPDENAVFLVPWAIEPTAMVIHDTFDKLGNPIELSPRNILKRVLKMYADKGWRPIVAPEMEFYLTKRSDDPDYPLQAPVGRSGRQETGRQSFSIDAANEFDPLFEDMYDWCEAQGLDLDTLIHEEGTAQMEINFRHGDALDLADQILVFKRTMREAALKHNVAATFMAKPMTGEPGSAMHLHQSIVDVKTGKNIFSNADGTMSELFLHHIGGLQKFIPEVLPLFAPNVNSFRRFLPDTSAPVNVEWGEENRTVGLRVPDSSPENRRVENRLAGADANPYLALAASLLCGYIGMVEGIKPSAQVKGRGYERRNLRLPLTIEAALERMENCKPLEQYLGSKFISGYVAVKRAEHENFKRVISSWEREFLLLSV	not soluble
MGSDKIHHHHHHMTTLGVVYDKFLSPYFAGGGAVHAYEVTIRLKEHFKIVYYPSSPVLSWDKENVEKKAKELESQGIKVADEFYEILEEKRRIGRLKRFLFADKIAREFSKGFKVDADILYEPDHTSLDIFYLARDTKYGVTFHEPPFYNNSLRYFRRLVKFYGVNPYTGKGFHTRFLYNEYIKYLYKRLFKKVKKPTFLAGVSEAPLLESGLGGEVIKPGNAFNPSLLKFRNRGKEDYVVFWSRLNQDKGFHELPDILRIMEKRGGNKVRLILMGKFFDKYNERRFWSKVRKYDLRVDYKGFVKREELADIVSKAKVLIYPSHVDGFSLVALESLALGTPVVAYDIPAIKSVYGGLECVRIVNEFDKESMAENALKFYKMSEKEIEEIMNGDKLMEFLKLHSNWDNVANSVLKILKKYLI	not soluble
MGSDKIHHHHHHMTTTPLPTFSDDQAQAHDRIAEVLRDMGVDIDDDTLVPAKDTKSAVLAVTGKAGSGKTLLLAELVKALERTGVEIVSGDWEGKRRKDRRTVAVLAPTNKAASVLRNRGVPATTIHRILYTPMYDPEFEKVAEWLAGQGERPSIEALTDAAMDRAKEVYETTKSVPAALASAGLRGSDFITGWKRREDGLDIGLVDESSMLDDKQFQDLKEIFPTLVLFGDPAQLAPVGQSGEMIFDRFKGDNLLHLGRVHRQDADNPILDLAHALGDPQLEFRDFEQMIEDAAARDDRVVVSPRANSDMMARSPVLVWRNATRIRLIAAFRAAFGAGDDEILPGEPLICDGIELPLKHRKKRIDLEARGLIKGAPVVYLGPGNKPGFSRLHVMGAETPRFSAASIVKIEKPGEEEPFLPYAARMGAAFLHGAAVTMHKAQGSQWPEVQVFSPDLYAASRAGRMEAGQALWKRLAYVAITRAEERLFWVTRYMLSRPVHDLSTDDLTVKAAPLELEAEEDADTSTM	not soluble
